Measured values published in patent US20250092146A1 (ABILITA BIO, published 2025).

T1: human CCR7 (hCCR7) (human, UniProt P32248 25-378)
T1 construct: HEK293 cells stably expressing hCCR7
T1 sequence: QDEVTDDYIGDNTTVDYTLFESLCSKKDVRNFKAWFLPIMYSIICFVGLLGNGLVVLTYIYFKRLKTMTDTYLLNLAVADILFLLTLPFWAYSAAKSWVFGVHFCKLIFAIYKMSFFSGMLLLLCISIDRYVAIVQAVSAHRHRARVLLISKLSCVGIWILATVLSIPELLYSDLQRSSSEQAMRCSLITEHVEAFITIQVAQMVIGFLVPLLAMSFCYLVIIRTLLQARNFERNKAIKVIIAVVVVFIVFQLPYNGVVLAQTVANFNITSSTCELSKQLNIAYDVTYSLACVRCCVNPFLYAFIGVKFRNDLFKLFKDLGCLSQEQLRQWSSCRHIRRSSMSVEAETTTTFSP


Experiments:
human CCR7 (hCCR7) = molecular target: T1, human CCR7 (hCCR7); assay: flow cytometry, HEK293 cells stably expressing hCCR7, anti-VHH detection
Description: Recombinant cells expressing hCCR8 were resuspended to a final concentration of 1.0×10⁶ cells/ml in FACS buffer. […] Dilutions of purified VHHs were incubated with cells for 60 min. Individual samples were distributed into 96-well v-bottom plates and incubated for one hour at 4° C. […] Binding was determined in parallel on HEK293 cells stably expressing the closely related receptor hCCR7 (SEQ ID NO: 41), as control for binding specificity.

human CCR8 (hCCR8) [1] = molecular target: T2, human CCR8 (hCCR8) (human, UniProt P51685 1-355); assay: cell-based or functional assay
[2] = molecular target: T3, Chimera A (hCCR8 with its N-terminus replaced by amino acids 1-22 of hCCR1) (human (hCCR8/hCCR1 chimera), UniProt P51685 18-355); assay: flow cytometry (MFI), HEK293T cells expressing Chimera A (hCCR8 with hCCR1 N-terminus)
T3 construct: Transiently transfected HEK293T cells
Source text: Determination of binding epitope location on hCCR8 was done for representative VHH-Fc antibodies by flow cytometry analysis using HEK293T cells expressing hCCR8 or two receptor chimeras comprised of combined sequence elements taken from hCCR8 (SEQ ID NO: 37) and hCCR1 (SEQ ID NO: 39). In the first, Chimera A based on hCCR8, the N-terminal region of the receptor (SEQ ID NO: 38) was replaced with a sequence encoding the N-terminal region of hCCR1 (SEQ ID NO: 40). In Chimera B based on hCCR1, the N-terminal region of the receptor was replaced by the sequence encoding the hCCR8 N-terminus (SEQ ID NO: 38).

human CCR8 (hCCR8) [3] = molecular target: T2, human CCR8 (hCCR8); assay: competition with 10 nM VHH-1-Fc, flow cytometry on HEK293-hCCR8 cells
Description: Binding studies were conducted on hCCR8 expressing cells for 60 minutes at 4° C., followed by two washes and then 30 minutes incubation at 4° C. with the Zenon R-Phycoerythrin Anti-human IgG secondary antibody (ThermoFisher Scientific, #Z-25455). Binding to cells was assessed by flow cytometry.

T2 sequence (P51685 whole entry, the tested form may be a part): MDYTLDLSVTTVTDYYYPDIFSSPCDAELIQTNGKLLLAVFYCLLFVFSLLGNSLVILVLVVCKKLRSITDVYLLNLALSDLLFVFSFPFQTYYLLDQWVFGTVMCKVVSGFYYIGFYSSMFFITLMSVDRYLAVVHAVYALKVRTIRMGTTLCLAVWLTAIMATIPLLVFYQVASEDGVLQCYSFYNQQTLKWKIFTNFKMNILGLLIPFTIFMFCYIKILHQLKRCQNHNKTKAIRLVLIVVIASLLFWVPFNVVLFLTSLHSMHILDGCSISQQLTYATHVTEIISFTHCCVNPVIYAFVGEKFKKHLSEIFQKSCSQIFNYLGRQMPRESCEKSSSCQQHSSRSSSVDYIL
T3 sequence (P51685 other isoform, or with tags, fused parts or gaps mutant): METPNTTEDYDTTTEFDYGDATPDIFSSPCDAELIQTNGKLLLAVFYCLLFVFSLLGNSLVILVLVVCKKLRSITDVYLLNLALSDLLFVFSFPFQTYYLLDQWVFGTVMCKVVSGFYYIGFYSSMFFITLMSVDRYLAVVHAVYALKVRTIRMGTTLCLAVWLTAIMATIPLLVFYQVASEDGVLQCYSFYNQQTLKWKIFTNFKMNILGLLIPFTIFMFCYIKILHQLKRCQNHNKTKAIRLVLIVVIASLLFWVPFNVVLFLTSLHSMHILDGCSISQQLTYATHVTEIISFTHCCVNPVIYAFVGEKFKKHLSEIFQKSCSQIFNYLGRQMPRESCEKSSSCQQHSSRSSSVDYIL

Binder	EC50 (nM), ADCC reporter assay, mouse FcγRIV effector cells, HuT-78 target cells (human CCR8 (hCCR8) [1]) [nM]	Fold Induction, ADCC reporter assay, mouse FcγRIV effector cells, HuT-78 target cells (human CCR8 (hCCR8) [1]) [fold]	further results
VHH-1 (VHH, not shown: small tags and cut ends, Monovalent VHH purified from E. coli periplasm (PelB signal peptide)) VHH: QVQLQESGGGLVQAGGSLRLSCVASGSTSSIRRIGWYRQAPGKQRELVARFSSGGGTNYADFVKGRFTISGDNAKNTMYLQMNSLKPEDTAVYYCSARRLLGTSRVDYWGQGTQVTVSS			binding result (human CCR7 (hCCR7)): no binding
VHH-3 (VHH, not shown: small tags and cut ends, Monovalent VHH purified from E. coli periplasm (PelB signal peptide)) VHH: QVQLQESGGGLVQAGGSLRLSCVASGSTSSIRRIGWYRQAPGKQRELVARFSSGGGTNYADFVKGRFTISGDNAKNTMYLQMNSLKPEDTAVYYCGARRLLGTSRVDYWGQGTQVTVSS			binding result (human CCR7 (hCCR7)): no binding
VHH-1-mFc (Fc fusion) QVQLQESGGGLVQAGGSLRLSCVASGSTSSIRRIGWYRQAPGKQRELVARFSSGGGTNYADFVKGRFTISGDNAKNTMYLQMNSLKPEDTAVYYCSARRLLGTSRVDYWGQGTQVTVSSEPRGPTIKPCPPCKCPAPNLLGGPSVFIFPPKIKDVLMISLSPIVTCVVVDVSEDDPDVQISWFVNNVEVHTAQTQTHREDYNSTLRVVSALPIQHQDWMSGKEFKCKVNNKDLPAPIERTISKPKGSVRAPQVYVLPPPEEEMTKKQVTLTCMVTDFMPEDIYVEWTNNGKTELNYKNTEPVLDSDGSYFMYSKLRVEKKNWVERNSYSCSVVHEGLHNHHTTKSFSRTPGK	0.015	12	
BMS-4A19 (antibody, human IgG1, kappa, Comparator from WO2021194942A1, made in HEK293 cells) heavy: not shown light: DIVMTQTPLSLSVTPGQPASISCRSSQSLFHSSGNTYLHWYLQKPGQPPQLLIYKVSNRFSGVPDRFSGSGSGTDFTLKISRVEAEDVGVYYCSQSTHVPFTFGQGTKLEIKRTVAAPSVFIFPPSDEQLKSGTASVVCLLNNFYPREAKVQWKVDNALQSGNSQESVTEQDSKDSTYSLSSTLTLSKADYEKHKVYACEVTHQGLSSPVTKSFNRGEC			binding result [2]: no binding
CCL1 (ligand, UniProt P22362 24-96, looked up, also called hCCR8 agonist CCL1) KSMQVPFSRCCFSFAEQEIPLRAILCYRNTSSICSNEGLIFKLKRGKEACALDTVGWVQRHRKMLRHCPSKRK			binding result (human CCR8 (hCCR8) [3]): binds
VHH-1.3-7-mFc (Fc fusion) EVQLVESGGGLVQPGGSLRLSCAVSGSTSSIRRIGWYRQAPGKGRELVAHFSSGGGTNYADSVKGRFTISGDKSKNTMYLQMNSLRAEDTAVYYCSARRLLGTSRVDYWGQGTTVTVSSEPRGPTIKPCPPCKCPAPNLLGGPSVFIFPPKIKDVLMISLSPIVTCVVVDVSEDDPDVQISWFVNNVEVHTAQTQTHREDYNSTLRVVSALPIQHQDWMSGKEFKCKVNNKDLPAPIERTISKPKGSVRAPQVYVLPPPEEEMTKKQVTLTCMVTDFMPEDIYVEWTNNGKTELNYKNTEPVLDSDGSYFMYSKLRVEKKNWVERNSYSCSVVHEGLHNHHTTKSFSRTPGK	0.007	12	
VHH-1.3-19-mFc (Fc fusion) EVQLVESGGGLVQPGGSLRLSCAVSGSTSSIRGIGWYRQAPGKGRELVAHFSSGGGTNYADSVKGRFTISGDKSKNTMYLQMNSLRAEDTAVYYCSARRLLGTSRVDYWGQGTQVTVSSEPRGPTIKPCPPCKCPAPNLLGGPSVFIFPPKIKDVLMISLSPIVTCVVVDVSEDDPDVQISWFVNNVEVHTAQTQTHREDYNSTLRVVSALPIQHQDWMSGKEFKCKVNNKDLPAPIERTISKPKGSVRAPQVYVLPPPEEEMTKKQVTLTCMVTDFMPEDIYVEWTNNGKTELNYKNTEPVLDSDGSYFMYSKLRVEKKNWVERNSYSCSVVHEGLHNHHTTKSFSRTPGK	0.024	11.3	
VHH-1.3-20-mFc (Fc fusion) EVQLVESGGGLVQPGGSLRLSCAVSGSTSSIRGIGWYRQAPGKGRELVARFISGGGTNYADSVKGRFTISGDNSKNTMYLQMNSLRAEDTAVYYCSARILLGTSRVDYWGQGTQVTVSSEPRGPTIKPCPPCKCPAPNLLGGPSVFIFPPKIKDVLMISLSPIVTCVVVDVSEDDPDVQISWFVNNVEVHTAQTQTHREDYNSTLRVVSALPIQHQDWMSGKEFKCKVNNKDLPAPIERTISKPKGSVRAPQVYVLPPPEEEMTKKQVTLTCMVTDFMPEDIYVEWTNNGKTELNYKNTEPVLDSDGSYFMYSKLRVEKKNWVERNSYSCSVVHEGLHNHHTTKSFSRTPGK	0.345	9.74	
VHH-1.3-21-mFc (Fc fusion) EVQLVESGGGLVQPGGSLRLSCAVSGSTSSIRGIGWYRQAPGKGRELVARFISGGGTNYADSVKGRFTISADNSKNTMYLQMNSLRAEDTAVYYCSARRLLGTSRVDYWGQGTQVTVSSEPRGPTIKPCPPCKCPAPNLLGGPSVFIFPPKIKDVLMISLSPIVTCVVVDVSEDDPDVQISWFVNNVEVHTAQTQTHREDYNSTLRVVSALPIQHQDWMSGKEFKCKVNNKDLPAPIERTISKPKGSVRAPQVYVLPPPEEEMTKKQVTLTCMVTDFMPEDIYVEWTNNGKTELNYKNTEPVLDSDGSYFMYSKLRVEKKNWVERNSYSCSVVHEGLHNHHTTKSFSRTPGK	0.042	11.4	
